Assay results: the supplement of paper PMC10724198
± gives the standard deviation of the averaged measurements.

Key:
Saccharomyces cerevisiae [1] = assay: protein stability index of tFT-peptide fusion (C-terminal peptide) (PSI (0-1 scale)); higher = more stable (slower turnover)
Method: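 MPS profiling in S. cerevisiae of the tFT-X12 degron library: putative degron peptides plus stable controls, 12 aa, fused to the C-terminus of a sfGFP-mCherry timer. Cells are FACS-sorted into 8 mCherry/sfGFP bins and deep-sequenced. PSI runs from 0 (unstable) to 1 (stable). Backgrounds are wild type, das1Δ and doa10Δ at 30 °C, and wild type, das1Δ, cdc34-1 and cdc53-1 at 37 °C; 2-3 technical replicates each.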

Saccharomyces cerevisiae [2] = assay: as above; details: genetic background: wild type; temperature: 30 C
[3] = genetic background: cdc34-1, temperature: 37 C
[4] = genetic background: cdc53-1, temperature: 37 C
[5] = genetic background: das1 deletion, temperature: 30 C
[6] = genetic background: das1 deletion, temperature: 37 C
[7] = genetic background: doa10 deletion, temperature: 30 C
[8] = genetic background: wild type, temperature: 30 C
[9] = genetic background: wild type, temperature: 37 C
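Also: PSI is a weighted mean of sequencing reads over stability bins, variants kept only with over 10 reads, mCherry proximal and sfGFP distal, peptide attached via GGGS linker.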

Sequence | protein stability index (Saccharomyces cerevisiae [1]; [3]) | protein stability index (Saccharomyces cerevisiae [1]; [4]) | protein stability index (Saccharomyces cerevisiae [1]; [5]) | protein stability index (Saccharomyces cerevisiae [1]; [6]) | protein stability index (Saccharomyces cerevisiae [1]; [7]) | protein stability index (Saccharomyces cerevisiae [1]; [8]) | protein stability index (Saccharomyces cerevisiae [1]; [9]) | protein stability index (Saccharomyces cerevisiae [2])
FLLLVVYVSLYS | 0.143 ± 0.0068 | 0.207 ± 0.039 | 0.183 ± 0.033 | 0.2973 ± 0.00095 | 0.133 ± 0.0063 | 0.156 ± 0.032 | 0.224 ± 0.034 | 0.216 ± 0.1
FLLSFFGLVFFW | 0.39 ± 0.029 | 0.437 ± 0.0046 | 0.37 ± 0.018 | 0.446 ± 0.0048 | 0.397 ± 0.0073 | 0.374 ± 0.014 | 0.449 ± 0.024 | 0.397 ± 0.0048
FLPLFFLPCLSV | 0.363 ± 0.0091 | 0.372 ± 0.031 | 0.318 ± 0.011 | 0.431 ± 0.015 | 0.315 ± 0.011 | 0.319 ± 0.019 | 0.413 ± 0.0059 | 0.361 ± 0.022
FLSPPPFLALLP | 0.7 ± 0.03 | 0.758 ± 0.022 | 0.675 ± 0.015 | 0.76275 ± 0.00029 | 0.691 ± 0.028 | 0.6908 ± 0.0045 | 0.717 ± 0.014 | 0.723 ± 0.023
FLSRHFLFLSFV | 0.467 ± 0.036 | 0.489 ± 0.047 | 0.505 ± 0.019 | 0.6779 ± 0.0061 | 0.4114 ± 0.0017 | 0.308 ± 0.031 | 0.443 ± 0.006 | 0.409 ± 0.016
FPFHSRPCLPVL | 0.567 ± 0.0099 | 0.576 ± 0.11 | 0.475 ± 0.025 | 0.622 ± 0.041 | 0.4581 ± 0.0044 | 0.471 ± 0.012 | 0.5723 ± 0.0015 | 0.518 ± 0.056
FPTLVRKFINAI | 0.448 ± 0.024 | 0.629 ± 0.052 | 0.56 ± 0.016 | 0.6825 ± 0.0019 | 0.0802 ± 0.011 | 0.0817 ± 0.014 | 0.123 ± 0.018 | 0.13 ± 0.0092
FRRSFPFPLFLR | 0.105 ± 0.014 | 0.0555 ± 0.0048 | 0.196 ± 0.031 | 0.238 ± 0.03 | 0.696 ± 0.04 | 0.197 ± 0.045 | 0.219 ± 0.0033 | 0.232 ± 0.12
FSCRRISFFLLV | 0.525 ± 0.014 | 0.676 ± 0.039 | 0.536 ± 0.043 | 0.628 ± 0.017 | 0.179 ± 0.011 | 0.176 ± 0.012 | 0.26 ± 0.015 | 0.182 ± 0.05
FSPLVCLLFFLF | 0.492 ± 0.031 | 0.565 ± 0.018 | 0.424 ± 0.017 | 0.5725 ± 0.00062 | 0.32 ± 0.0052 | 0.333 ± 0.019 | 0.4778 ± 0.0016 | 0.3938 ± 0.00098
FSRFPFVKLSLV | 0.642 ± 0.059 | 0.731 ± 0.019 | 0.6201 ± 0.0056 | 0.70163 ± 0.00051 | 0.161 ± 0.0044 | 0.197 ± 0.048 | 0.306 ± 0.012 | 0.297 ± 0.016
FSSWPFFSFYLS | 0.681 ± 0.032 | 0.689 ± 0.021 | 0.617 ± 0.036 | 0.743 ± 0.026 | 0.415 ± 0.034 | 0.392 ± 0.024 | 0.6048 ± 0.0018 | 0.518 ± 0.036
FSVRLCLFVWGC | 0.399 ± 0.036 | 0.481 ± 0.033 | 0.341 ± 0.028 | 0.4684 ± 0.004 | 0.305 ± 0.0062 | 0.317 ± 0.015 | 0.4483 ± 0.0025 | 0.436 ± 0.1
FSYFFIFFYMVC | 0.207 ± 0.029 | 0.257 ± 0.042 | 0.234 ± 0.043 | 0.378 ± 0.038 | 0.152 ± 0.01 | 0.147 ± 0.035 | 0.228 ± 0.0028 | 0.238 ± 0.0085
FVGVVCILWLVG | 0.177 ± 0.0044 | 0.33 ± 0.0064 | 0.252 ± 0.022 | 0.405 ± 0.0085 | 0.153 ± 0.017 | 0.176 ± 0.026 | 0.318 ± 0.073 | 0.356 ± 0.011
FVLFSIFHFFLW | 0.424 ± 0.084 | 0.438 ± 0.039 | 0.362 ± 0.051 | 0.528 ± 0.041 | 0.356 ± 0.0048 | 0.347 ± 0.016 | 0.47 ± 0.0094 | 0.382 ± 0.027
FVLSLGQLVFIF | 0.552 ± 0.03 | 0.5818 ± 0.0051 | 0.421 ± 0.028 | 0.607 ± 0.018 | 0.381 ± 0.0082 | 0.397 ± 0.029 | 0.548 ± 0.013 | 0.445 ± 0.016
FVSAFVCLLCLV | 0.58 ± 0.041 | 0.6283 ± 0.006 | 0.509 ± 0.0073 | 0.615 ± 0.0078 | 0.357 ± 0.013 | 0.377 ± 0.016 | 0.4877 ± 0.00084 | 0.4919 ± 0.004
FVSFTVSFSVVV | 0.296 ± 0.018 | 0.38 ± 0.031 | 0.334 ± 0.025 | 0.417 ± 0.01 | 0.357 ± 0.031 | 0.342 ± 0.0055 | 0.382 ± 0.0063 | 0.379 ± 0.032
FVVIFRFSRFSA | 0.419 ± 0.12 | 0.477 ± 0.012 | 0.336 ± 0.025 | 0.512 ± 0.018 | 0.313 ± 0.0064 | 0.326 ± 0.0097 | 0.494 ± 0.037 | 0.39 ± 0.0004

Sequence | protein stability index (Saccharomyces cerevisiae [1]; [3]) | protein stability index (Saccharomyces cerevisiae [1]; [4]) | protein stability index (Saccharomyces cerevisiae [1]; [5]) | protein stability index (Saccharomyces cerevisiae [1]; [6]) | protein stability index (Saccharomyces cerevisiae [1]; [7]) | protein stability index (Saccharomyces cerevisiae [1]; [8]) | protein stability index (Saccharomyces cerevisiae [1]; [9]) | protein stability index (Saccharomyces cerevisiae [2])
FWYIRIRLAVVA | 0.0797 ± 0.027 | 0.175 ± 0.029 | 0.0867 ± 0.013 | 0.179 ± 0.006 | 0.0283 ± 0.0015 | 0.0257 ± 0.0096 | 0.0826 ± 0.01 | 0.0536 ± 0.019
FYIWFFRLIYFF | 0.421 ± 0.043 | 0.4414 ± 0.0014 | 0.402 ± 0.039 | 0.536 ± 0.019 | 0.344 ± 0.0048 | 0.331 ± 0.01 | 0.453 ± 0.012 | 0.408 ± 0.014
FYTYILTVAEAL | 0.518 ± 0.041 | 0.583 ± 0.04 | 0.457 ± 0.021 | 0.531 ± 0.013 | 0.454 ± 0.0094 | 0.455 ± 0.014 | 0.5273 ± 0.0011 | 0.482 ± 0.015
GALVVSWAEVLC | 0.5163 ± 0.0026 | 0.525 ± 0.01 | 0.402 ± 0.024 | 0.555 ± 0.0083 | 0.372 ± 0.014 | 0.402 ± 0.037 | 0.57 ± 0.02 | 0.503 ± 0.012
GCLSFVAAVHLH | 0.624 ± 0.026 | 0.6949 ± 0.0026 | 0.598 ± 0.043 | 0.69689 ± 0.00038 | 0.284 ± 0.024 | 0.332 ± 0.028 | 0.528 ± 0.034 | 0.4325 ± 0.0028
GCRLRHRLVRIV | 0.517 ± 0.038 | 0.646 ± 0.052 | 0.604 ± 0.035 | 0.6902 ± 0.0065 | 0.109 ± 0.048 | 0.119 ± 0.044 | 0.201 ± 0.011 | 0.2105 ± 0.0013
GESCGGSERRVG | 0.69 ± 0.019 | 0.7319 ± 0.0058 | 0.637 ± 0.009 | 0.7352 ± 0.0033 | 0.636 ± 0.024 | 0.666 ± 0.031 | 0.6897 ± 0.0056 | 0.643 ± 0.3
GFGRDHGNDTGP | 0.712 ± 0.017 | 0.7331 ± 0.0021 | 0.6497 ± 0.0025 | 0.75 ± 0.0082 | 0.645 ± 0.021 | 0.648 ± 0.02 | 0.725 ± 0.0097 | 0.721 ± 0.0055
GFRVPVVVGVRG | 0.449 ± 0.023 | 0.475 ± 0.03 | 0.334 ± 0.041 | 0.531 ± 0.0077 | 0.2939 ± 0.0024 | 0.33 ± 0.042 | 0.4999 ± 0.0013 | 0.432 ± 0.0044
GFSSRWLMQYMV | 0.585 ± 0.05 | 0.737 ± 0.0088 | 0.665 ± 0.021 | 0.747 ± 0.0094 | 0.326 ± 0.014 | 0.375 ± 0.11 | 0.462 ± 0.042 | 0.369 ± 0.0081
GGGGGGGGGGVG | 0.313 ± 0.019 | 0.427 ± 0.044 | 0.397 ± 0.014 | 0.457 ± 0.057 | 0.391 ± 0.004 | 0.387 ± 0.024 | 0.446 ± 0.03 | 0.514 ± 0.045
GGGVGVAVVLFW | 0.432 ± 0.024 | 0.501 ± 0.012 | 0.34 ± 0.027 | 0.53 ± 0.011 | 0.308 ± 0.011 | 0.342 ± 0.02 | 0.5056 ± 0.0016 | 0.417 ± 0.016
GGGVWWGVLVLG | 0.37 ± 0.028 | 0.451 ± 0.064 | 0.31 ± 0.037 | 0.50956 ± 0.00012 | 0.262 ± 0.0072 | 0.309 ± 0.033 | 0.4678 ± 0.0034 | 0.46142 ± 8.8e-05
GGGWAVLLWVQV | 0.387 ± 0.019 | 0.457 ± 0.043 | 0.339 ± 0.029 | 0.476 ± 0.0087 | 0.29 ± 0.01 | 0.317 ± 0.017 | 0.442 ± 0.007 | 0.406 ± 0.022
GGVVGGVGVYDG | 0.702 ± 0.012 | 0.7445 ± 0.0015 | 0.635 ± 0.016 | 0.748 ± 0.019 | 0.65 ± 0.021 | 0.65 ± 0.02 | 0.706 ± 0.015 | 0.707 ± 0.019
GGWGVFGVWVWM | 0.476 ± 0.051 | 0.557 ± 0.0062 | 0.429 ± 0.027 | 0.59 ± 0.0025 | 0.186 ± 0.0072 | 0.214 ± 0.031 | 0.422 ± 0.012 | 0.324 ± 0.0082
GGYVTVTSVTVV | 0.587 ± 0.051 | 0.62 ± 0.02 | 0.501 ± 0.025 | 0.605 ± 0.019 | 0.499 ± 0.035 | 0.506 ± 0.011 | 0.611 ± 0.015 | 0.468 ± 0.039
GHYQGVCHRRIC | 0.657 ± 0.026 | 0.725 ± 0.019 | 0.64 ± 0.028 | 0.7667 ± 0.0054 | 0.18 ± 0.016 | 0.176 ± 0.024 | 0.368 ± 0.033 | 0.34 ± 0.015
GIISMYVARRLG | 0.594 ± 0.037 | 0.689 ± 0.0079 | 0.661 ± 0.015 | 0.69833 ± 0.00068 | 0.149 ± 0.016 | 0.173 ± 0.034 | 0.3 ± 0.022 | 0.285 ± 0.019
